Reference: the Human Domainome abundance scans (Beltran et al. 2025)

B1: Membrane-associated guanylate kinase, WW and PDZ domain-containing protein 3, residues 287 to 329; numbered along this chain, Q5TCQ9 (parent)
chain: MRDETLEPLPKNWEMAYTDTGMIYFIDHNTKTTTWLDPRLCKK

Variants of: B1
Test: abundance fitness (aPCA) (normalised: wild type 0, dead -1); higher = more abundant; growth selection in yeast, the domain comes from the species named
Conditions: Homo sapiens

Abundance fitness, by site and new letter:
I23: N -0.12 | G -0.087 | V 0.03 | L -0.01 | D -0.32 | M -0.006 | P -0.001 | T -0.006 | Q 0.042 | E 0.028 | F -0.162 | S -0.068 | A 0.053 | C 0.002 | W -0.277
T30: M -0.21 | E -0.265 | W -0.572 | I -0.423 | G -0.314 | L -0.207 | A -0.116 | K -0.155 | C -0.271 | D -0.281 | P -0.887 | Q -0.139 | S -0.051
M22: P -0.62 | Y 0.004 | T -0.005 | Q 0.096 | V -0.025 | S 0.199 | R -0.043
F25: H -0.421 | V -0.989 | Q -0.634 | R -0.692 | C -0.774 | I -0.557 | W -0.077 | G -0.57 | D -0.516 | P -0.679 | E -0.565 | K -0.68 | L -0.82 | S -0.616 | M -0.721 | T -0.662
H28: R -0.164 | A -0.323 | E -0.511 | G -0.275 | M -0.386 | I -0.328 | D -0.53 | V -0.273 | L -0.379 | T -0.214 | P -0.364 | S -0.28 | Q -0.306
N29: F -0.152 | S -0.103 | R -0.078 | G -0.069 | D -0.141 | H -0.248 | C -0.132 | A -0.074 | M -0.142 | I -0.194 | K -0.105 | P -0.525 | T -0.051 | E -0.03 | Q -0.089 | V -0.094
R39: I -0.332 | A -0.233 | M -0.33 | P -0.516 | V -0.301 | S -0.259 | L -0.349 | K -0.309 | E -0.244 | Q -0.417 | D -0.317 | F -0.635 | T -0.22 | G -0.314 | N -0.476 | C -0.322
L36: W -0.061 | C -0.099 | F -0.088 | Y -0.077 | A -0.044 | Q -0.03 | H -0.037 | G -0.144 | I -0.07 | R -0.013 | N -0.121 | M -0.001 | D -0.183 | E -0.097 | T -0.078 | V -0.019
P38: E -1.02 | N -1.04 | F -0.95 | A -0.899 | R -0.954 | D -0.854 | G -0.902 | H -0.806 | W -0.963 | K -0.994 | C -1.12 | Y -1.17 | T -0.897 | M -0.83
K43: H -0.036 | A 0.011 | P 0.042 | G 0.03 | N -0.062 | E 0.031 | I -0.144 | L -0.011 | C -0.065 | Q 0.136
W35: Q -0.232 | T -0.104 | I -0.257 | Y 0.126 | V -0.291 | G -0.341 | R -0.266 | P -0.34 | S -0.199 | E -0.361 | A -0.248 | N -0.339 | D -0.359 | F 0.074 | H -0.447 | M -0.16 | L -0.146 | C -0.222
K42: P -0.094 | C -0.146 | A 0.018 | V -0.099 | D 0.002 | H -0.081 | N -0.168 | E 0.056 | W -0.115 | Q -0.056 | S -0.063 | L -0.086 | Y -0.223 | F -0.242 | R -0.038 | T -0.029 | G -0.014 | I -0.097 | M -0.1
D37: Q -0.486 | M -1.02 | S -0.188 | E -0.556 | W -0.616 | V -0.926 | G -0.557 | Y -0.731 | I -1.04 | A -0.436 | P -0.168 | R -0.263 | C -0.459 | N -0.235 | H -0.166 | K -0.407
T32: P -0.879 | A -0.207 | I -0.11 | H -0.438 | C -0.101 | Q -0.137 | K -0.303 | M -0.071 | L -0.152 | D -0.47 | R -0.206 | G -0.357 | W -0.52 | N -0.215 | E -0.328 | Y -0.417 | V -0.082
I26: W -0.648 | G -0.657 | S -0.634 | K -0.196 | R -0.321 | C -0.352 | D -0.659 | Y -0.479 | L -0.097 | E -0.543 | T -0.437 | P -0.868 | Q -0.485
C41: H 0.051 | F -0.044 | V 0.02 | E 0.038 | S 0.034 | G -0.004 | D -0.006 | I 0.059 | Y -0.005 | A 0.058 | Q 0.04 | K -0.015 | R -0.021 | P 0.043 | T 0.01 | W 0.007 | L -0.013
T33: Q -0.417 | W -0.445 | E -0.442 | S -0.187 | I -0.519 | M -0.315 | P -0.684 | R -0.351 | Y -0.447 | F -0.584 | L -0.496 | D -0.648 | N -0.418 | K -0.388 | G -0.551 | C -0.142 | H -0.535 | V -0.298
T34: I -1.02 | P -0.906 | Y -0.982 | S -0.106 | C -0.64 | A -0.632 | G -0.667 | N -0.661 | Q -0.28 | R -0.71 | K -0.719 | W -0.743 | M -0.62 | E -0.677 | L -1.21 | V -0.924
Y24: Q -0.582 | V -0.567 | H -0.574 | E -0.53 | L -0.61 | G -0.774 | T -0.638 | R -0.598 | D -0.524 | I -0.678 | K -0.668 | S -0.708 | A -0.723 | W -0.579 | F -0.146 | C -0.652
L40: K 0.016 | P -0.118 | R -0.02 | N 0.041 | D -0.039 | V 0 | G -0.028 | Q -0.014 | I -0.102 | S -0.053 | A -0.019 | E 0.022 | C -0.033 | T -0.085 | M -0.069 | Y -0.193
D27: N -0.238 | R -1.03 | W -1.07 | E -0.266 | M -0.766 | A -0.789 | Y -0.119 | S -0.644 | T -1.08 | P -1.12 | L -1.11 | G -0.903 | F -0.716 | K -0.98 | C -0.403 | V -1.01
K31: D -0.205 | Y -0.369 | W -0.278 | E -0.035 | I -0.674 | Q -0.004 | R -0.017 | T -0.214 | G -0.09 | H 0.018 | M -0.071 | L -0.182 | C -0.09 | N -0.159 | P -0.812 | V -0.385
